Consider 3 molecules from patent US20210395318A1 (Molecular Partners, published 2021).

What all share (test): cell-based or functional assay
Experiment [1] deals with T1, human CD40 on primary human B cells or human monocyte-derived dendritic cells (human, UniProt P25942 21-277).
For experiment [2], the target named is T1, human CD40 on primary human B cells or …. The source holds these as a separate data set.
Experiment [3] has the same target. The source holds these as a separate data set.
The target is the same in experiment [4]. This is another data set of the same source.

T1 sequence (P25942 21-277 H80K/K81H limits assumed): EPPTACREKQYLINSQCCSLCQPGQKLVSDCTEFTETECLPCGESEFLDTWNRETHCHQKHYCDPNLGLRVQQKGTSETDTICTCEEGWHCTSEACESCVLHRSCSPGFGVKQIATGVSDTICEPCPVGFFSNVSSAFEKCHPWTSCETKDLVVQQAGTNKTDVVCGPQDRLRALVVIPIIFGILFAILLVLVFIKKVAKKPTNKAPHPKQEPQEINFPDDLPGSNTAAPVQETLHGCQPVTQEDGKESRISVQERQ

B1: SMA087 (designed binder)
chain: MRGSHHHHHHGSDLGKKLLEAARAGQDDEVRELLKAGADVNAKDYFSHTPLHLAARNGHLKIVEVLLKAGADVNAKDFAGKTPLHLAAADGHLEIVEVLLKAGADVNAQDIFGKTPADIAADAGHEDIAEVLQKAAGSPTPTPTTPTPTPTTPTPTPTGSDLGEKLLVAALYGQDDEVRELLKAGADVNAKDQWGLTPLHKAALQGHLEIVEVLLKAGADVNAKDERGHTPLHWAARFGHLEIVEVLLKAGADVNAQDQKGYTPADLAALWGHEDIAEVLQKAAGSPTPTPTTPTPTPTTPTPTPTGSDLGKKLLQAARAGQLDEVRELLKAGADVNAKDTWGFTPLHIAAESGHLEIVEVLLKAGADVNAKDVQGRTPLHIAAHSGHLEIVEVLLKAGADVNAKDFRGWTPLHLAAWSGHLEIVEILLKAGADVNAQDKSGKTPADLAARAGHQDIAEVLQKAA
Regarding B1, in experiment [1], the “Efficacy [MFI at highest dose], MFI CD86, human B cells with WT-CHO cells (no FAP), w HSA” value was found to be 299 MFI; the “Efficacy [MFI at highest dose], MFI CD86, human B cells with WT-CHO cells (no FAP), w/o HSA” value was determined as 291 MFI; the “Efficacy at highest dose, % CD86, human B cells with WT-CHO cells (no FAP), w HSA” value turned out to be 13.7%; the “Efficacy at highest dose, % CD86, human B cells with WT-CHO cells (no FAP), w/o HSA” value was determined as 12.5%. Besides, in experiment [2], the “Efficacy [MFI at highest dose], MFI CD86, human B cells with FAP-CHO cells, w HSA” value was found to be 799 MFI; the “Efficacy [MFI at highest dose], MFI CD86, human B cells with FAP-CHO cells, w/o HSA” value was 1640 MFI; the “Efficacy at highest dose, % CD86, human B cells with FAP-CHO cells, w HSA” value is 27%; the “Efficacy at highest dose, % CD86, human B cells with FAP-CHO cells, w/o HSA” value was determined as 43.4%. Further, in experiment [3], the “EC50, % CD86, human B cells with FAP-CHO cells, w HSA” value came to 72.3 nM; the “EC50, % CD86, human B cells with FAP-CHO cells, w/o HSA” value (shortened to “EC50, % CD86, human B cells … w/o HSA”) came out at 11.4 nM; the “EC50, MFI CD86, human B cells with FAP-CHO cells, w HSA” value was 52 nM; the “EC50, MFI CD86, human B cells with FAP-CHO cells, w/o HSA” value (shortened to “EC50, MFI CD86, human B cells … w/o HSA”) was 28.9 nM.

B2: SMA105 (designed binder)
chain: MRGSHHHHHHGSDLGEKLLVAALYGQDDEVRELLKAGADVNAKDQWGLTPLHKAALQGHLEIVEVLLKAGADVNAKDERGHTPLHWAARFGHLEIVEVLLKAGADVNAQDQKGYTPADLAALWGHEDIAEVLQKAAGSPTPTPTTPTPTPTTPTPTPTGSDLGKKLLQAARAGQLDEVRELLKAGADVNAKDTWGFTPLHIAAESGHLEIVEVLLKAGADVNAKDVQGRTPLHIAAHSGHLEIVEVLLKAGADVNAKDFRGWTPLHLAAWSGHLEIVEILLKAGADVNAQDKSGKTPADLAARAGHQDIAEVLQKAAGSPTPTPTTPTPTPTTPTPTPTGSDLGKKLLQAARAGQLDEVRELLKAGADVNAKDTWGFTPLHIAAESGHLEIVEVLLKAGADVNAKDVQGRTPLHIAAHSGHLEIVEVLLKAGADVNAKDFRGWTPLHLAAWSGHLEIVEILLKAGADVNAQDKSGKTPADLAARAGHQDIAEVLQKAAGSPTPTPTTPTPTPTTPTPTPTGSDLGKKLLQAARAGQLDEVRELLKAGADVNAKDTWGFTPLHIAAESGHLEIVEVLLKAGADVNAKDVQGRTPLHIAAHSGHLEIVEVLLKAGADVNAKDFRGWTPLHLAAWSGHLEIVEILLKAGADVNAQDKSGKTPADLAARAGHQDIAEVLQKAA
With B2, in experiment [1], the “Efficacy [MFI at highest dose], MFI CD86, human B cells with WT-CHO cells (no FAP), w/o HSA” value turned out to be 672 MFI and the “Efficacy at highest dose, % CD86, human B cells with WT-CHO cells (no FAP), w/o HSA” value was found to be 69.2%. In experiment [2], the “Efficacy [MFI at highest dose], MFI CD86, human B cells with FAP-CHO cells, w/o HSA” value is 5560 MFI and the “Efficacy at highest dose, % CD86, human B cells with FAP-CHO cells, w/o HSA” value worked out at 87.2%. In experiment [3], the “EC50, % CD86, human B cells … w/o HSA” value came out at 0.11 nM and the “EC50, MFI CD86, human B cells … w/o HSA” value is 0.33 nM.

B3: SMA104 (designed binder)
chain: MRGSHHHHHHGSDLGEKLLVAALYGQDDEVRELLKAGADVNAKDQWGLTPLHKAALQGHLEIVEVLLKAGADVNAKDERGHTPLHWAARFGHLEIVEVLLKAGADVNAQDQKGYTPADLAALWGHEDIAEVLQKAAGSPTPTPTTPTPTPTTPTPTPTGSDLGKKLLQAARAGQLDEVRELLKAGADVNAKDTWGFTPLHIAAESGHLEIVEVLLKAGADVNAKDVQGRTPLHIAAHSGHLEIVEVLLKAGADVNAKDFRGWTPLHLAAWSGHLEIVEILLKAGADVNAQDKSGKTPADLAARAGHQDIAEVLQKAAGSPTPTPTTPTPTPTTPTPTPTGSDLGKKLLQAARAGQLDEVRELLKAGADVNAKDTWGFTPLHIAAESGHLEIVEVLLKAGADVNAKDVQGRTPLHIAAHSGHLEIVEVLLKAGADVNAKDFRGWTPLHLAAWSGHLEIVEILLKAGADVNAQDKSGKTPADLAARAGHQDIAEVLQKAA
In the case of B3, in experiment [4], the “fold increase of efficacy against SMA014, CD86 upregulation on human B cells with FAP expressing CHO cells” value came to 2 fold and the “fold increase of potency against SMA014, CD86 upregulation on human B cells with FAP expressing CHO cells” value was 20 fold. In experiment [1], the “Efficacy [MFI at highest dose], MFI CD86, human B cells with WT-CHO cells (no FAP), w/o HSA” value is 252 MFI and the “Efficacy at highest dose, % CD86, human B cells with WT-CHO cells (no FAP), w/o HSA” value is 46%. For the same molecule, in experiment [2], the “Efficacy [MFI at highest dose], MFI CD86, human B cells with FAP-CHO cells, w/o HSA” value turned out to be 6270 MFI and the “Efficacy at highest dose, % CD86, human B cells with FAP-CHO cells, w/o HSA” value is 86.8%. Further, in experiment [3], the “EC50, % CD86, human B cells … w/o HSA” value is 0.23 nM and the “EC50, MFI CD86, human B cells … w/o HSA” value worked out at 0.74 nM.
